Measurements: paper PMC4468108

Tests used:
DsRmChΔ5 = DsRmChΔ5 (UniProt Q9U6Y8); test: AUC; sedimentation velocity, 40,000 RPM overnight, PBS pH 7.4, sample diluted to A575 of 0.5, c(m) distribution in Sedfit
DsRmCh [1] = target: DsRmCh (UniProt Q9U6Y8); test: SEC; Superdex 75 10/300, 100 μl of purified protein, absorbance at 575 nm
DsRmCh [2] = target: DsRmCh (UniProt Q9U6Y8); test: AUC; sedimentation velocity, 40,000 RPM overnight, PBS pH 7.4, sample diluted to A575 of 0.5, c(m) distribution in Sedfit

Row | Substance | stoichiometry N (DsRmChΔ5) | stoichiometry N (DsRmCh [1]) | stoichiometry N (DsRmCh [2])
1 | DsRmChΔ5 (from UniProt Q9U6Y8 1-220) | 4 |  | 
2 | DsRmCh (from UniProt Q9U6Y8 1-225) |  | 4 | 4
